Reference: PMC8034652 (Nucleic Acids Research, 2021)

Key:
[…] = target: the molecule itself; assay: […]
crystal structure = target: the molecule itself; assay: crystal structure
FOXO1-DBD [1] = target: T1, FOXO1-DBD (human, UniProt Q12778 151-266); assay: ITC
FOXO1-DBD Q227R = FOXO1-DBD Q227R (human, UniProt Q12778 151-266, Q227R); assay: EMSA
FOXO1-DBD R225E = FOXO1-DBD R225E (human, UniProt Q12778 151-266, R225E); assay: EMSA
FOXC2-DBD [2] = target: T2, FOXC2-DBD (UniProt Q99958 72-171); assay: EMSA
T2 sequence: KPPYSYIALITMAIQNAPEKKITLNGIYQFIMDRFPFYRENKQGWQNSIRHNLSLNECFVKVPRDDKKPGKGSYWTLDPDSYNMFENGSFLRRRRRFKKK

FOXI1-DBD = target: T3, FOXI1-DBD (UniProt Q12951 119-223); assay: EMSA
T3 sequence: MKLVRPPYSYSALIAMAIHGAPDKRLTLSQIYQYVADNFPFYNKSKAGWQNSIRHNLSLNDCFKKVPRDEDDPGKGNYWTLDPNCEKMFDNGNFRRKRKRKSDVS

FOXO3-DBD = FOXO3-DBD (UniProt O43524 158-253); assay: EMSA
FOXM1-DBD = target: T4, FOXM1-DBD (UniProt Q08050 222-360); assay: EMSA
T4 sequence: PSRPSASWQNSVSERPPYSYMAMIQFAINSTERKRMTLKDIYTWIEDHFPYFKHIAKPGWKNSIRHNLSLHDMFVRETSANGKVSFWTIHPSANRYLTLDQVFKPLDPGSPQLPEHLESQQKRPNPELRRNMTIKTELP

FOXO1-DBD [3] = target: T1, FOXO1-DBD; assay: crystal structure
FOXC2-DBD [4] = target: T2, FOXC2-DBD; assay: crystal structure

B1: FOXI1-DBD (residues 119-223) (domain or fragment)
chain: T3 sequence
[…]
  binding result: binds

B2: human FOXO1-DBD (residues 151-266) (domain or fragment)
chain: KSSSSRRNAWGNLSYADLITKAIESSAEKRLTLSQIYEWMVKSVPYFKDKGDSNSSAGWKNSIRHNLSLHSKFIRVQNEGTGKSSWWMLNPEGGKSGKSPRRRAASMDNNSKFAKS
Crystal structure
  stoichiometry N: 2

B3: FOXO3-DBD (residues 158-253) (domain or fragment)
chain: GNLSYADLITRAIESSPDKRLTLSQIYEWMVRCVPYFKDKGDSNSSAGWKNSIRHNLSLHSRFMRVQNEGTGKSSWWIINPDGGKSGKAPRRRAVS
[…]
  binding result: binds

B4: FKH_26 (dsDNA)
DNA 1: GACGAAGTAAACACGGCAGGTTCGTC
DNA 2: GACGAACCTGGCGTGTTTACTTCGTC
FOXO1-DBD [1]
  Kd: 1380 nM
FOXO1-DBD Q227R
  binding result: binds
FOXO1-DBD R225E
  binding result: binds

B5: DIV2_26 (dsDNA)
DNA 1: GACGAAGTAAACATGTTTACTTCGTC
DNA 2: GACGAAGTAAACATGTTTACTTCGTC
FOXC2-DBD [2]
  binding result: binds
FOXI1-DBD
  binding result: binds
FOXO3-DBD
  binding result: binds
FOXO1-DBD [1]
  Kd: 150 nM
FOXM1-DBD
  binding result: binds

B6: DIV2 20-bp crystal DNA (dsDNA)
DNA 1: ACCGTAAACATGTTTACGGT
DNA 2: ACCGTAAACATGTTTACGGT
FOXO1-DBD [3]
  binding result: binds
FOXC2-DBD [4]
  binding result: binds
